Source: patent publication US20120253013A1

Molecular target: HGF receptor c-Met on uninfected HUVECs (human) (UniProt P08581)
Experiment: cell-based or functional assay

Sequence of UniProt P08581 (P08581 25-1390): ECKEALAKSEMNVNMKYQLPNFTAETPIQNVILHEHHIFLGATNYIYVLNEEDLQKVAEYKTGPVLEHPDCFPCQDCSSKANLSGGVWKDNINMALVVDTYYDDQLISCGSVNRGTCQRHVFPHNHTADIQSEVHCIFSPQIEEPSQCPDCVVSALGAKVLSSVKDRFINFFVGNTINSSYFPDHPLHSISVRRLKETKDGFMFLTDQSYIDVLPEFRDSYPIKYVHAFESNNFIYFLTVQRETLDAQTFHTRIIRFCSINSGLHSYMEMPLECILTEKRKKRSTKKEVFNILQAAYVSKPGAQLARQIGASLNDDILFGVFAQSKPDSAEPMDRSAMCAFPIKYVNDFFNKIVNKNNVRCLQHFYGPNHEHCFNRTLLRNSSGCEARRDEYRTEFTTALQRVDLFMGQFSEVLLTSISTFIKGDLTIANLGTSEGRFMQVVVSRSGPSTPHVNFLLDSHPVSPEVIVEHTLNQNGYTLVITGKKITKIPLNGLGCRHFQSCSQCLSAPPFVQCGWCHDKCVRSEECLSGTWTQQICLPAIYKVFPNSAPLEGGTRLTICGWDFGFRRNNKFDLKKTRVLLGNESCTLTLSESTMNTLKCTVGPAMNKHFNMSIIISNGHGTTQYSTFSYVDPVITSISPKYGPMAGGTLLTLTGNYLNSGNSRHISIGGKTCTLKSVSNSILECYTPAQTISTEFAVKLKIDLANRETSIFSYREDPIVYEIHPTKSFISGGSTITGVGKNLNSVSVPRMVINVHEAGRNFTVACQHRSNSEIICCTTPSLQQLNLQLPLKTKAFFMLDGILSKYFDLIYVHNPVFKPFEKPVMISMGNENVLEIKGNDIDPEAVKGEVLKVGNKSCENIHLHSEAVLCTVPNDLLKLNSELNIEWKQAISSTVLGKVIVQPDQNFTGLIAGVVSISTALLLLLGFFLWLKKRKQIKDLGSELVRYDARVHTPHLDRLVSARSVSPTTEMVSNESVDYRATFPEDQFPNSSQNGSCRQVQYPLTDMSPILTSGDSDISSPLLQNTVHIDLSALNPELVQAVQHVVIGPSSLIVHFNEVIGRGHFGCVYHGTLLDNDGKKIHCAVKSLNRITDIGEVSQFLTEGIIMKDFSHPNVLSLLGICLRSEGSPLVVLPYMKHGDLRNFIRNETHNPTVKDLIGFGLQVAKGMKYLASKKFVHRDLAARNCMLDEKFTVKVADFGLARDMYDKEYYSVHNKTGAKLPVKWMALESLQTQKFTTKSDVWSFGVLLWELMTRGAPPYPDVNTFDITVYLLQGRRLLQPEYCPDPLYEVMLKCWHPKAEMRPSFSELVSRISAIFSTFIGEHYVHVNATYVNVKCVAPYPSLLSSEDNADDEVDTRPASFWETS

hepatocyte growth factor (HGF) in conditioned medium from Ad-Egr3 infected HUVECs (from UniProt P14210 32-728) (ligand)
c-Met receptor phosphorylation on tyrosine 1234/1235 (PathScan Phospho-Met Sandwich ELISA), fold increase against Ad-lacZ: 1.8 fold
